Fold change of affinity data for 44 molecules are collected here from patent US20210388087A1.

Positions count from the first letter of the chain named. In names and notes the source's numbering stands.

B1: dBBDu183H S100aQ / dBBDu072L (antibody, name in Kabat numbering, V domains shown)
VH: QVQLVESGGGLVQPGRSLRLSCAASGFTFSNAWMHWVRQAPGKGLEWVAQIKDKGNAYAAYYAPSVKGRFTISRDDSKNSIYLQMNSLKTEDTAVYYCHYVHYASAQTVLPAFGVDAWGQGTTVTVSS
VL: DIVMTQSPLSLPVTPGEPASISCQASQELVHMNRNTYLHWYQQKPGQAPRLLIYKVSNRFPGVPDRFSGSGSGTDFTLKISRVEAEDVGVYYCAQGTSVPFTFGQGTKLEIK
B2: dBBDu183H V95D / dBBDu072L (antibody, name in Kabat numbering, V domains shown)
VH: B1 VH with V101D, Q107S
VL: B1 VL
B3: dBBDu183H A102Q / dBBDu072L (antibody, name in Kabat numbering, V domains shown)
VH: B1 VH with Q107S, A117Q
VL: B1 VL
B4: dBBDu183H S99E / dBBDu072L (antibody, name in Kabat numbering, V domains shown)
VH: B1 VH with S105E, Q107S
VL: B1 VL
B5: dBBDu183H G100hS / dBBDu072L (antibody, name in Kabat numbering, V domains shown)
VH: B1 VH with Q107S, G114S
VL: B1 VL
B6: dBBDu183H L100dT / dBBDu072L (antibody, name in Kabat numbering, V domains shown)
VH: B1 VH with Q107S, L110T
VL: B1 VL
B7: dBBDu183H T100bD / dBBDu072L (antibody, name in Kabat numbering, V domains shown)
VH: B1 VH with Q107S, T108D
VL: B1 VL
B8: dBBDu183H F100gD / dBBDu072L (antibody, name in Kabat numbering, V domains shown)
VH: B1 VH with Q107S, F113D
VL: B1 VL
B9: dBBDu183H Y97E / dBBDu072L (antibody, name in Kabat numbering, V domains shown)
VH: B1 VH with Y103E, Q107S
VL: B1 VL
B10: dBBDu183H S99D / dBBDu072L (antibody, name in Kabat numbering, V domains shown)
VH: B1 VH with S105D, Q107S
VL: B1 VL
B11: dBBDu183H H93D / dBBDu072L (antibody, name in Kabat numbering, V domains shown)
VH: B1 VH with H99D, Q107S
VL: B1 VL
B12: dBBDu183H A100fT / dBBDu072L (antibody, name in Kabat numbering, V domains shown)
VH: B1 VH with Q107S, A112T
VL: B1 VL
B13: dBBDu183H H93T / dBBDu072L (antibody, name in Kabat numbering, V domains shown)
VH: B1 VH with H99T, Q107S
VL: B1 VL
B14: dBBDu183H A100S / dBBDu072L (antibody, name in Kabat numbering, V domains shown)
VH: B1 VH with A106S, Q107S
VL: B1 VL
B15: dBBDu183H Y94E / dBBDu072L (antibody, name in Kabat numbering, V domains shown)
VH: B1 VH with Y100E, Q107S
VL: B1 VL
B16: dBBDu183H A100T / dBBDu072L (antibody, name in Kabat numbering, V domains shown)
VH: B1 VH with A106T, Q107S
VL: B1 VL
B17: dBBDu183H A102D / dBBDu072L (antibody, name in Kabat numbering, V domains shown)
VH: B1 VH with Q107S, A117D
VL: B1 VL
B18: dBBDu183H Y97T / dBBDu072L (antibody, name in Kabat numbering, V domains shown)
VH: B1 VH with Y103T, Q107S
VL: B1 VL
B19: dBBDu183H V100cD / dBBDu072L (antibody, name in Kabat numbering, V domains shown)
VH: B1 VH with Q107S, V109D
VL: B1 VL
B20: dBBDu183H V100iD / dBBDu072L (antibody, name in Kabat numbering, V domains shown)
VH: B1 VH with Q107S, V115D
VL: B1 VL
B21: dBBDu183H V100iQ / dBBDu072L (antibody, name in Kabat numbering, V domains shown)
VH: B1 VH with Q107S, V115Q
VL: B1 VL
B22: dBBDu183H V95E / dBBDu072L (antibody, name in Kabat numbering, V domains shown)
VH: B1 VH with V101E, Q107S
VL: B1 VL
B23: dBBDu183H A102T / dBBDu072L (antibody, name in Kabat numbering, V domains shown)
VH: B1 VH with Q107S, A117T
VL: B1 VL
B24: dBBDu183H H93S / dBBDu072L (antibody, name in Kabat numbering, V domains shown)
VH: B1 VH with H99S, Q107S
VL: B1 VL
B25: dBBDu183H S100aT / dBBDu072L (antibody, name in Kabat numbering, V domains shown)
VH: B1 VH with Q107T
VL: B1 VL
B26: dBBDu183H V100iS / dBBDu072L (antibody, name in Kabat numbering, V domains shown)
VH: B1 VH with Q107S, V115S
VL: B1 VL
B27: dBBDu183H V95S / dBBDu072L (antibody, name in Kabat numbering, V domains shown)
VH: B1 VH with V101S, Q107S
VL: B1 VL
B28: dBBDu183H A100fQ / dBBDu072L (antibody, name in Kabat numbering, V domains shown)
VH: B1 VH with Q107S, A112Q
VL: B1 VL
B29: dBBDu183H V95T / dBBDu072L (antibody, name in Kabat numbering, V domains shown)
VH: B1 VH with V101T, Q107S
VL: B1 VL
B30: dBBDu183H A98D / dBBDu072L (antibody, name in Kabat numbering, V domains shown)
VH: B1 VH with A104D, Q107S
VL: B1 VL
B31: dBBDu183H Y97D / dBBDu072L (antibody, name in Kabat numbering, V domains shown)
VH: B1 VH with Y103D, Q107S
VL: B1 VL
B32: dBBDu183H G100hQ / dBBDu072L (antibody, name in Kabat numbering, V domains shown)
VH: B1 VH with Q107S, G114Q
VL: B1 VL
B33: dBBDu183H G100hD / dBBDu072L (antibody, name in Kabat numbering, V domains shown)
VH: B1 VH with Q107S, G114D
VL: B1 VL
B34: dBBDu183H L100dD / dBBDu072L (antibody, name in Kabat numbering, V domains shown)
VH: B1 VH with Q107S, L110D
VL: B1 VL
B35: dBBDu183H G100hT / dBBDu072L (antibody, name in Kabat numbering, V domains shown)
VH: B1 VH with Q107S, G114T
VL: B1 VL
B36: dBBDu183H A98T / dBBDu072L (antibody, name in Kabat numbering, V domains shown)
VH: B1 VH with A104T, Q107S
VL: B1 VL
B37: dBBDu183H S100aD / dBBDu072L (antibody, name in Kabat numbering, V domains shown)
VH: B1 VH with Q107D
VL: B1 VL
B38: dBBDu183H H96D / dBBDu072L (antibody, name in Kabat numbering, V domains shown)
VH: B1 VH with H102D, Q107S
VL: B1 VL
B39: dBBDu183H A100D / dBBDu072L (antibody, name in Kabat numbering, V domains shown)
VH: B1 VH with A106D, Q107S
VL: B1 VL
B40: dBBDu183H H96S / dBBDu072L (antibody, name in Kabat numbering, V domains shown)
VH: B1 VH with H102S, Q107S
VL: B1 VL
B41: dBBDu183H H93E / dBBDu072L (antibody, name in Kabat numbering, V domains shown)
VH: B1 VH with H99E, Q107S
VL: B1 VL
B42: dBBDu183H Y97S / dBBDu072L (antibody, name in Kabat numbering, V domains shown)
VH: B1 VH with Y103S, Q107S
VL: B1 VL
B43: dBBDu183H H96E / dBBDu072L (antibody, name in Kabat numbering, V domains shown)
VH: B1 VH with H102E, Q107S
VL: B1 VL
B44: dBBDu183H A100fD / dBBDu072L (antibody, name in Kabat numbering, V domains shown)
VH: B1 VH with Q107S, A112D
VL: B1 VL

Human CD137 ECD (human), sequence (chain, as listed by the source limits assumed): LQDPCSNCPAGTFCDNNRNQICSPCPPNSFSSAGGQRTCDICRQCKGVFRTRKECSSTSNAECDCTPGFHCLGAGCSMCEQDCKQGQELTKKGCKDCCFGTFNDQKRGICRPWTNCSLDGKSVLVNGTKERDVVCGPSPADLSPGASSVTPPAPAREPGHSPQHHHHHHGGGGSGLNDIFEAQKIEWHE

The experiment addresses Human CD137 ECD (human). The experiment in a line: SPR, vs parent H183/L072.
For B1, the fold change of affinity was 0 fold.
Regarding B2, the fold change of affinity worked out at 0 fold.
Under B3 stands 0 fold; under B4, 0 fold.
Under B5 stands 0 fold; under B6, 0 fold; under B7, 0 fold.
Under B8 stands 0 fold.
For B9, the fold change of affinity was 0 fold.
Under B10 stands 0 fold.
Under B11 stands 0 fold; under B12, 0 fold; under B13, 0 fold.
As for B14, the fold change of affinity turned out to be 0 fold.
For B15 the value was 0 fold; for B16, 0 fold; for B17, 0 fold.
B18: the fold change of affinity turned out to be 0 fold.
With B19, the fold change of affinity worked out at 0 fold.
For B20 the value was 0 fold; for B21, 0 fold.
As for B22, the fold change of affinity was 0 fold.
For B23 the value was 0 fold; for B24, 0 fold.
Under B25 stands 0 fold; under B26, 0 fold.
Under B27 stands 0 fold; under B28, 0 fold.
For the molecule B29, the fold change of affinity turned out to be 0 fold.
Turning to B30, the fold change of affinity stood at 0 fold.
Under B31 stands 0 fold; under B32, 0 fold.
Under B33 stands 0 fold; under B34, 0 fold; under B35, 0 fold.
For B36 the value was 0 fold.
In the case of B37, the fold change of affinity was 0 fold.
For B38 the value was 0 fold.
For B39 the value was 0 fold.
For B40 the value was 0 fold; for B41, 0 fold; for B42, 0 fold.
Consider B43, for which the fold change of affinity stood at 0 fold.
For B44 the value was 0 fold.
